First the molecules themselves.
B1: Sh29B06-78 (antibody, human IgG1, kappa, V domains shown)
VH: QVQLQESGPGLVKPSETLSLTCTVSGGSISSGYWNWIRKPPGKKLEYIGYISYSGKTYYNPSLKSRVTISRDTSKNQFSLKLSSVTAADTAVYYCARSKYDYAMDYWGQGTLVTVSS
VL: DIVMTQSPLSLPVTPGEPASISCRASEIVDNFGISFMNWYLQKPGQSPQLLIYAASNQGSGVPDRFSGSGSGTDFTLKISRVEAEDVGVYYCQQSKEVPPTFGGGTKVEIKR
notes: Humanized, human IgG1/kappa: Hu29B06 Hv4-59 D27G T30S M48I I67V Y78F IgG1 + Sh29B06 Kv2-28 Kappa
B2: Sh07F01-62 (antibody, human IgG1, kappa, V domains shown)
VH: EVQLVESGGGLVQPGGSLRLSCAASGFTFSRHWMSWVRQAPGKGLEWVSEINPDSRTINYAPSVKGRFTISRDNAKNSLYLQMNSLRAEDTAVYYCARRVRIHYYGAMDSWGQGTTVTVSS
VL: DIQLTQSQSFVSTSVGDRVTVTCRASQNVGSSLVWYQQKPGKSPKTLIYSASFLYSGVPSRFSGSGSGTEFTLTISSVQPEDFADYFCQQYNNYPLTFGGGTKVEIKR
notes: Humanized, human IgG1/kappa: Sh07F01 Hv3-48 D28T T60A L63V E65G IgG1 + HE L 07F01 Kv1-9 Kappa
B3: RON8 (antibody, V domains shown)
VH: EVQLVESGGGLVQPGGSLRLSCAASGFTFSSYLMTWVRQAPGKGLEWVANIKQDGSEKYYVDSVKGRFTISRDNAKNSLNLQMNSLRAEDTAVYYCTRDGYSSGRHYGMDVWGQGTTVIVSS
VL: EIVLTQSPATLSLSPGERATLSCRASQSVSRYLAWYQQKPGQAPRLLIYDASNRATGIPARFSGSGSGTDFTLTISSLEPEDFAVYYCQQRSNWPRTFGQGTKVEIKR
B4: Sh07F01-2 (antibody, human IgG1, kappa, V domains shown)
VH: EVKLLESGGGLVQPGGSLKLSCAASGFDFSRHWMSWVRLAPGKGLEWIAEINPDSRTINYTPSLKEKFIISRDNAKNSLFLQMNRVRSEDTALYYCARRVRIHYYGAMDSWGQGTSVTVSS
VL: DIVLTQSQKIVSTSVGARVSVTCKASQNVGSSLVWYQQKPGQSPKTLIYSASFRYSGVPDRFTGSGSGTDFTLTISNVQSEDLADYFCQQYNNYPLTFGAGTKLELKR
notes: also called Chimeric 07F01 C102S
B5: Sh29B06-23 (antibody, human IgG1, kappa, V domains shown)
VH: B1 VH with G27D, S30T, I48M, V67I, F78Y
VL: B1 VL
notes: Humanized, human IgG1/kappa: Hu29B06 Hv4-59 IgG1 (CDR graft with back mutations) + Sh29B06 Kv2-28 Kappa
B6: Sh07F01-43 (antibody, human IgG1, kappa, V domains shown)
VH: B2 VH with T28D, A61T, V64L, G66E
VL: B2 VL
notes: Humanized, human IgG1/kappa: Sh07F01 Hv3-48 IgG1 + HE L 07F01 Kv1-9 Kappa
B7: Sh07F01-83 (antibody, human IgG1, kappa, V domains shown)
VH: B2 VH
VL: B2 VL with Q8P, V11L, T13A, V21I, S43A, V78L, D85T, F87Y
notes: Humanized, human IgG1/kappa: Sh07F01 Hv3-48 D28T T60A L63V E65G IgG1 + Sh07F01 Kv1-9 F1 Kappa
B8: Sh07F01-69 (antibody, human IgG1, kappa, V domains shown)
VH: B2 VH with T28D, A61T, V64L, G66E
VL: B2 VL with Q8P, V11L, T13A, V21I, S43A, V78L, D85T, F87Y
notes: Humanized, human IgG1/kappa: Sh07F01 Hv3-48 IgG1 + Sh07F01 Kv1-9 F1 Kappa
B9: Sh29B06-9 (antibody, human IgG1, kappa, V domains shown)
VH: EVQLQESGPSLVKPSQTLSLTCSVTGDSITSGYWNWIRKFPGNKLEYMGYISYSGKTYYNPSLKSRISITRDTSKNHYYLQLISVTAEDTATYYCARSKYDYAMDYWGQGTSVTVSS
VL: B1 VL
notes: Chimeric 29B06 Heavy IgG1 + Sh29B06 Kv2-28 Kappa

Positions count from the first letter of the chain named. In names and notes the source's numbering stands.

The target of the first experiment is T1, recombinant human RON SEMA and PSI domains (human, UniProt Q04912 25-571).
T1 construct: domain: SEMA+PSI; Commercial protein (R&D Systems); also called rhRON SEMA+PSI; hRON SEMA+PSI
As to the kind of experiment: SPR, Ab captured on anti-human IgG Fc, 25 C.
As to B1, the equilibrium dissociation constant (Kd) (as a rule, the equilibrium constant for the complex coming apart) stood at 0.048 nM; the koff (commonly the rate constant with which the complex falls apart) is 3.1e-05 s⁻¹; the kon (in general, a measure of how fast the partners come together) stood at 680000 M⁻¹ s⁻¹.

Regarding B2, the Kd amounted to 0.085 nM, the koff was found to be 0.00016 s⁻¹ and the kon stood at 1.8e+06 M⁻¹ s⁻¹.

Turning to B3, the Kd is 0.67 nM, the koff is 0.00068 s⁻¹ and the kon was determined as 1.2e+06 M⁻¹ s⁻¹.

The target in the next experiment is T1, recombinant human RON SEMA and PSI …. As to the kind of experiment: SPR, purified Ab captured on anti-human IgG Fc, 37 C. Here is the method:
(§1) Goat anti-human IgG Fc (Jackson ImmunoResearch, Catalog No. 109-005-098) was immobilized on carboxymethylated dextran CM4 sensor chips (Biacore) by amine coupling (Biacore) using a standard coupling protocol according to the vendor's instructions. The analyses were performed at 37° C. using PBS (Invitrogen) containing 0.05% surfactant P20 (Biacore) as running buffer.
(§2) The antibodies were captured in individual flow cells at a flow rate of 60 μl/minute. Injection time was varied for each antibody to yield an Rₘₐₓ between 30 and 60 RU. Buffer or rhRON SEMA+PSI diluted in running buffer was injected sequentially over a reference surface (no antibody captured) and the active surface (antibody to be tested) for 300 seconds at 60 μl/minute. The dissociation phase was monitored for up to 1200 seconds. The surface was then regenerated with two 60 second injections of Glycine pH 2.25 (made from Glycine pH 2.0 (Biacore) and pH 2.5 (Biacore)) at 60 μl/minute. For the initial screening, only one or two concentrations of rhRON SEMA+PSI were tested, typically 10.0 and 2.5 nM (results are summarized in Table 20).
The binding affinities and kinetics of certain purified monoclonal antibodies were also determined. To further characterize certain antibodies, the surface plasmon resonance experiments described above were conducted using concentrations of rhRON SEMA+PSI between 0.3125 nM and 10.0 nM (a 2-fold serial dilution).
On the technique in general: Surface plasmon resonance follows binding to a sensor surface in real time, without labels.
Consider B4, for which the Kd turned out to be 0.31 nM, the koff was 0.00053 s⁻¹ and the kon was 1.7e+06 M⁻¹ s⁻¹.

As for B1, the equilibrium dissociation constant (Kd) was 0.11 nM, the koff was found to be 0.00011 s⁻¹ and the kon came to 1e+06 M⁻¹ s⁻¹.

B5: the Kd was 0.46 nM, the koff was determined as 0.00033 s⁻¹ and the kon was found to be 730000 M⁻¹ s⁻¹.

With B2, the Kd worked out at 0.25 nM, the koff worked out at 0.00069 s⁻¹ and the kon came to 2.8e+06 M⁻¹ s⁻¹.

In the case of B6, the Kd came to 0.3 nM, the koff is 0.00056 s⁻¹ and the kon was found to be 1.8e+06 M⁻¹ s⁻¹.

As for B7, the Kd is 0.24 nM, the koff came to 0.00079 s⁻¹ and the on-rate constant (kon) was determined as 3.2e+06 M⁻¹ s⁻¹.

Consider B8, for which the Kd was determined as 0.3 nM, the koff stood at 0.00078 s⁻¹ and the kon came out at 2.5e+06 M⁻¹ s⁻¹.

The next experiment shares this target. As to the kind of experiment: SPR, Ab captured on anti-human IgG Fc, 37 C.
Regarding B1, the Kd worked out at 0.11 nM, the koff is 0.0001 s⁻¹ and the kon was 960000 M⁻¹ s⁻¹.

For B2, the dissociation constant Kd was 0.25 nM, the koff turned out to be 0.00069 s⁻¹ and the on-rate constant (kon) worked out at 2.8e+06 M⁻¹ s⁻¹.

In the case of B3, the Kd worked out at 0.92 nM, the koff was 0.0025 s⁻¹ and the kon stood at 7e+06 M⁻¹ s⁻¹.

For another experiment the target is unchanged. As to the kind of experiment: SPR, purified Ab captured on anti-human IgG Fc, 25 C.
For B4, the Kd turned out to be 0.082 nM, the koff was determined as 9.8e-05 s⁻¹ and the kon was found to be 1.2e+06 M⁻¹ s⁻¹.

In the case of B1, the Kd stood at 0.052 nM, the koff came to 3.9e-05 s⁻¹ and the kon was found to be 750000 M⁻¹ s⁻¹.

As for B5, the Kd amounted to 0.14 nM, the koff is 9.5e-05 s⁻¹ and the kon turned out to be 670000 M⁻¹ s⁻¹.

Turning to B2, the Kd was found to be 0.085 nM, the koff came to 0.00016 s⁻¹ and the kon was 1.8e+06 M⁻¹ s⁻¹.

With B6, the Kd came out at 0.09 nM, the koff came to 0.00011 s⁻¹ and the kon was 1.2e+06 M⁻¹ s⁻¹.

As to B7, the Kd amounted to 0.11 nM, the koff came out at 0.00018 s⁻¹ and the kon is 1.6e+06 M⁻¹ s⁻¹.

For B8, the Kd came to 0.12 nM, the koff is 0.00014 s⁻¹ and the kon is 1.1e+06 M⁻¹ s⁻¹.

For a further experiment, the target named is T2, delta 160 RON variant (cell surface) (human, UniProt Q04912 25-1400).
T2 construct: whole, on cells; Splice variant; also called delta 160 variant
As to the kind of experiment: FACS titration on HT29 cells, 4 C. Here is the method:
(§3) Binding to cell surface human wild-type RON and the delta 160 RON variant by antibodies 07F01, Sh07F01-62, 29B06, and Sh29B06-78 was measured at 4° C., using Fluorescence Activated Cell Sorting (FACS). PC3 cells expressing the human wild-type RON, and HT29 cells expressing the delta 160 variant, were harvested using cell dissociation buffer (Invitrogen), washed twice with FACS buffer (PBS with 0.5% BSA), and treated 10 minutes with Cyto Q Antibody diluent and FC receptor block (Innovex Biosciences, Richmond, Calif.). Purified antibodies were diluted in FACS buffer over a concentration range from 0.01 nM to 25 nM. Cells were incubated with 100 μl of antibody for one hour, washed with FACS buffer three times, and incubated for 45 minutes with goat anti-mouse PE-conjugated antibody (Jackson ImmunoResearch Laboratories, West Grove, Pa.) or donkey anti-human PE-conjugated antibody (Jackson ImmunoResearch Laboratories, West Grove, Pa.). Cells were washed three times with FACS buffer, resuspended in 300 μl of FACS buffer, and analyzed using a Beckman Coulter Cytomics FC 500 FACS instrument. All four antibodies were compared in the same experiment.
The molecule B1 registered a Kd of 0.239 nM.

In turn, B2 showed a Kd of 0.118 nM.

In the next experiment the target is T1, recombinant human RON SEMA and PSI …. As to the kind of experiment: SPR, Ab captured on anti-human IgG Fc, 37 C, screening. The procedure: as §1, §2
Kinetic parameters were determined using the kinetic function of the BIAevaluation software (Biacore) with double reference subtraction. Kinetic parameters for each antibody, kₐ (association rate constant), kd (dissociation rate constant) and KD (equilibrium dissociation constant) were determined. Certain monoclonal antibodies were screened using cell culture media supernatant containing secreted antibody, and kinetic values of the monoclonal antibodies on rhRON SEMA+PSI at 37° C. are summarized in Table 20.
Take B4: the Kd worked out at 0.38 nM, the koff was 0.00073 s⁻¹ and the kon came out at 2e+06 M⁻¹ s⁻¹.

As to B9, the Kd is 0.26 nM, the koff worked out at 0.00022 s⁻¹ and the kon was found to be 870000 M⁻¹ s⁻¹.

With B5, the Kd is 0.64 nM, the koff was 0.00048 s⁻¹ and the kon stood at 780000 M⁻¹ s⁻¹.

Regarding B2, the Kd was determined as 0.36 nM, the koff was found to be 0.0014 s⁻¹ and the kon worked out at 3.9e+06 M⁻¹ s⁻¹.

Consider B7, for which the Kd worked out at 0.54 nM, the koff is 0.0014 s⁻¹ and the kon is 2.6e+06 M⁻¹ s⁻¹.

B8: the Kd stood at 0.56 nM, the koff was 0.0012 s⁻¹ and the kon stood at 2.3e+06 M⁻¹ s⁻¹.

The target of the next experiment is T3, human wild-type RON (cell surface) (human, UniProt Q04912 25-1400).
T3 construct: whole, on cells; also called Human RON; wt RON
As to the kind of experiment: FACS titration on PC3 cells, 4 C. Here is the method:
as §3
Molecule B1 showed a Kd of 0.09 nM.

For B2, the dissociation constant (Kd) was 0.043 nM.

These data come from patent publication US20120027773A1 (AVEO PHARMACEUTICALS, published 2012).
